Assay results: article PMC4661524 (Scientific Reports, 2015)

What was measured:
Details in all cases: both partners purified
[1] = biological target: T1, biotinylated HLA-DM ectodomain (human, UniProt P28067 27-233; P28068 19-218, biotin on the C-terminal avitag (BirA); which chain carries the avitag is not stated); test: SPR; BIAcore, 25 C, pH 6.3; biotinylated DM on a streptavidin chip; analyte: intact DOv SEC-purified after a pH 4.6 pulse (37 C, 8 min); apparent KD from fitted equilibrium RU
T1 construct: HLA-DM alpha chain, human, ectodomain; HLA-DM beta chain, human, ectodomain; Alpha/beta heterodimer; The supplement says only that avitag and flag-tag stand at a C-terminus; they are written on the beta chain for want of a statement; A KT3-tag at the C-terminus of recombinant DM beta is named in the western blot methods (D1:p7); also called bio-DM; sDM-Avi
T1 sequence (P28067 27-233, chain 1 of 2): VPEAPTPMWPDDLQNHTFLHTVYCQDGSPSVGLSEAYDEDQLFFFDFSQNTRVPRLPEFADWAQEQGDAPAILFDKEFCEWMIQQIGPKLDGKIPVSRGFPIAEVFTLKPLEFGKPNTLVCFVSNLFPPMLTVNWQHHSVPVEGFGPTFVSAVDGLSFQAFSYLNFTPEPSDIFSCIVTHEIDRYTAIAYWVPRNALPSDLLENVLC
T1 sequence (P28068 19-218, chain 2 of 2): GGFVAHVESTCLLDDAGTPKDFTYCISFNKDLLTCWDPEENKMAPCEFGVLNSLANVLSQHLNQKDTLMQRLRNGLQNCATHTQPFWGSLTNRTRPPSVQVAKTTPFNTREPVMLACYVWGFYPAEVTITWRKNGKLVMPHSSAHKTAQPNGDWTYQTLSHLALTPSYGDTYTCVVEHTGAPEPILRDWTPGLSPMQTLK

[2] = biological target: T1, biotinylated HLA-DM ectodomain; test: SPR; BIAcore, 37 C, pH 6.3; biotinylated DM on a streptavidin chip, DOv injected; 80 mM citrate-phosphate, 150 mM NaCl, 0.06% BSA, 0.05% P20; apparent KD from fitted equilibrium RU
[3] = biological target: T1, biotinylated HLA-DM ectodomain; test: SPR; BIAcore, 25 C, pH 4.85; biotinylated DM on a streptavidin chip, DOv injected; 80 mM citrate-phosphate, 150 mM NaCl, 0.06% BSA, 0.05% P20; apparent KD from fitted equilibrium RU
[4] = biological target: T1, biotinylated HLA-DM ectodomain; test: SPR; BIAcore, 37 C, pH 4.85; biotinylated DM on a streptavidin chip, DOv injected; 80 mM citrate-phosphate, 150 mM NaCl, 0.06% BSA, 0.05% P20; apparent KD from fitted equilibrium RU
[5] = biological target: T1, biotinylated HLA-DM ectodomain; test: SPR; BIAcore, 25 C, pH 5.5 (running buffer pH 5.49); biotinylated DM on a streptavidin chip, DOv injected; 80 mM citrate-phosphate, 150 mM NaCl, 0.06% BSA, 0.05% P20; apparent KD from fitted equilibrium RU
[6] = biological target: T1, biotinylated HLA-DM ectodomain; test: SPR; BIAcore, 25 C, pH 6.3 (running buffer pH 6.26); biotinylated DM on a streptavidin chip, untreated DOv injected; 80 mM citrate-phosphate, 150 mM NaCl, 0.06% BSA, 0.05% P20; apparent KD from fitted equilibrium RU
[7] = biological target: T1, biotinylated HLA-DM ectodomain; test: SPR; BIAcore, 25 C, pH 7.2 (running buffer pH 7.16); biotinylated DM (120-130 RU) on a streptavidin chip, DOv injected; 80 mM citrate-phosphate, 150 mM NaCl, 0.06% BSA, 0.05% P20; apparent KD from fitted equilibrium RU (slow dissociation model)
[8] = biological target: T2, HLA-DM ectodomain of the DM-DOwt complex (human, UniProt P28067 27-233; P28068 19-218); test: SEC; DM-DOwt ectodomains incubated at pH 4.6, 5.4 or 6.3 for the indicated times (4 h, 24 h) or not treated, separated by size exclusion chromatography; fractions western blotted with DO- or DM-specific antibodies
T2 construct: HLA-DM alpha chain, ectodomain; HLA-DM beta chain, ectodomain; For BLI the DM-DOwt complex was biotinylated; also called DM (in DM-DOwt); DM-DO ectodomains; source: recombinant, purified in complex with DOwt (double SEC-purified DM-DO ectodomains)
T2 sequence (P28067 27-233, chain 1 of 2): as the sequence (P28067 27-233, chain 1 of 2) above
T2 sequence (P28068 19-218, chain 2 of 2): as the sequence (P28068 19-218, chain 2 of 2) above

[9] = biological target: T3, biotinylated DM (soluble HLA-DM, SPR ligand) (human, UniProt P28067 27-233; P28068 19-218, biotin (chain and site not stated) | biotin (chain and site not stated)); test: SPR; BIAcore; 120–130 RU biotinylated DM on a streptavidin chip, DOv injected (Kinject, 30 μl/min, 5 min); 80 mM citrate-phosphate, 150 mM NaCl, 0.06% BSA, 0.05% P20, pH 4.85, 5.49, 6.26, 7.16; 25 °C or 37 °C; single cycle mode at pH 4.85 with >4 h dissociation; apparent constants (slow dissociation model)
T3 construct: HLA-DM alpha chain, ectodomain; HLA-DM beta chain, ectodomain; captured on a streptavidin chip; also called immobilized DM; source: recombinant, purified
T3 sequence (P28067 27-233, chain 1 of 2): as the sequence (P28067 27-233, chain 1 of 2) above
T3 sequence (P28068 19-218, chain 2 of 2): as the sequence (P28068 19-218, chain 2 of 2) above

[10] = biological target: T4, soluble HLA-DM ectodomain (human, UniProt P28067 27-233; P28068 19-218); test: BLI; Octet QK, 25 C as the table's head says, pH 6.3 (50 mM MES, 150 mM NaCl, 0.01% BSA, 0.002% Tween 20); biotinylated DOv on streptavidin biosensors, soluble DM 6.25-1600 nM; apparent KD from fitted equilibrium wavelength shifts
T4 construct: HLA-DM alpha chain, human, ectodomain; HLA-DM beta chain, human, ectodomain; The analyte of the BLI experiments, not biotinylated; also called sDM; soluble DM
T4 sequence (P28067 27-233, chain 1 of 2): as the sequence (P28067 27-233, chain 1 of 2) above
T4 sequence (P28068 19-218, chain 2 of 2): as the sequence (P28068 19-218, chain 2 of 2) above

[11] = biological target: T4, soluble HLA-DM ectodomain; test: BLI; Octet QK, 25 C as the table's head says, pH 5.5 (50 mM citrate, 150 mM NaCl, 0.01% BSA, 0.002% Tween 20); biotinylated DOv on streptavidin biosensors, soluble DM 6.25-1600 nM; apparent KD from fitted equilibrium wavelength shifts
[12] = biological target: T4, soluble HLA-DM ectodomain; test: BLI; Octet QK, 25 C as the table's head says, table row pH 7.2 (kinetic buffer 50 mM HEPES pH 7.4, 150 mM NaCl, 0.01% BSA, 0.002% Tween 20); biotinylated DOv on streptavidin biosensors, soluble DM 6.25-1600 nM; apparent KD from fitted equilibrium wavelength shifts
[13] = biological target: T4, soluble HLA-DM ectodomain; test: BLI; Octet QK, 25 C as the table's head says, table row pH 4.85 (kinetic buffer 50 mM acetate pH 4.7, 150 mM NaCl, 0.01% BSA, 0.002% Tween 20); biotinylated DOv on streptavidin biosensors, soluble DM 6.25-1600 nM; apparent KD from fitted equilibrium wavelength shifts

B1: stabilized HLA-DO variant ectodomain (alpha P11A) (domain or fragment, human)
MHC II alpha: TKADHMGSYGAAFYQSYGASGQFTHEFDEEQLFSVDLKKSEAVWRLPEFGDFARFDPQGGLAGIAAIKAHLDILVERSNRSRAINVPPRVTVLPKSRVELGQPNILICIVDNIFPPVINITWLRNGQTVTEGVAQTSFYSQPDHLFRKFHYLPFVPSAEDVYDCQVEHWGLDAPLLRHWELQVPIPPPDAME
MHC II beta: TDSPEDFVIQAKADCYFTNGTEKVQFVVRFIFNLEEYVRFDSDVGMFVALTKLGQPDAEQWNSRLDLLERSRQAVDGVCRHNYRLGAPFTVGRKVQPEVTVYPERTPLLHQHNLLHCSVTGFYPGDIKIKWFLNGQEERAGVMSTGPIRNGDWTFQTVVMLEMTPELGHVYTCLVDHSSLLSPVSVEWRAQSEYSWRK
notes: HLA-DO alpha chain, human, ectodomain; HLA-DO beta chain, human, ectodomain; Alpha/beta heterodimer, not biotinylated when used as SPR analyte; The avitag is said to stand at the C-terminus of recombinant DO beta (D1:p7); The 'sz' of the cell line's name may mean leucine zippers; In one experiment the intact fraction after a pH 4.6 pulse (37 C, 8 min, SEC 12-13 ml) was used; also called szDOv-Avi
- Kd [1]: 27.5 nM
- Kd [2]: 12.6 nM
- Kd [3]: 148 nM
- Kd [4]: 240 nM
- Kd [5]: 21.9 nM
- Kd [6]: 14.1 nM
- Kd [7]: 9.4 nM

B2: wild type HLA-DO ectodomain (DOwt) of the DM-DOwt complex (complex, human)
MHC II alpha: TKADHMGSYGPAFYQSYGASGQFTHEFDEEQLFSVDLKKSEAVWRLPEFGDFARFDPQGGLAGIAAIKAHLDILVERSNRSRAINVPPRVTVLPKSRVELGQPNILICIVDNIFPPVINITWLRNGQTVTEGVAQTSFYSQPDHLFRKFHYLPFVPSAEDVYDCQVEHWGLDAPLLRHWELQVPIPPPDAME
MHC II beta: TDSPEDFVIQAKADCYFTNGTEKVQFVVRFIFNLEEYVRFDSDVGMFVALTKLGQPDAEQWNSRLDLLERSRQAVDGVCRHNYRLGAPFTVGRKVQPEVTVYPERTPLLHQHNLLHCSVTGFYPGDIKIKWFLNGQEERAGVMSTGPIRNGDWTFQTVVMLEMTPELGHVYTCLVDHSSLLSPVSVEWRAQSEYSWRK
notes: HLA-DO alpha chain, ectodomain; HLA-DO beta chain, ectodomain; For BLI the DM-DOwt complex was biotinylated; also called wild type DO; source: recombinant, purified in complex with DM (double SEC-purified DM-DO ectodomains)
- binding result [8]: binds

B3: stabilized HLA-DO variant (DOv), ectodomain with αP11A (complex, human)
MHC II alpha: TKADHMGSYGAAFYQSYGASGQFTHEFDEEQLFSVDLKKSEAVWRLPEFGDFARFDPQGGLAGIAAIKAHLDILVERSNRSRAINVPPRVTVLPKSRVELGQPNILICIVDNIFPPVINITWLRNGQTVTEGVAQTSFYSQPDHLFRKFHYLPFVPSAEDVYDCQVEHWGLDAPLLRHWELQVPIPPPDAME
MHC II beta: TDSPEDFVIQAKADCYFTNGTEKVQFVVRFIFNLEEYVRFDSDVGMFVALTKLGQPDAEQWNSRLDLLERSRQAVDGVCRHNYRLGAPFTVGRKVQPEVTVYPERTPLLHQHNLLHCSVTGFYPGDIKIKWFLNGQEERAGVMSTGPIRNGDWTFQTVVMLEMTPELGHVYTCLVDHSSLLSPVSVEWRAQSEYSWRK
notes: HLA-DO alpha chain, ectodomain; HLA-DO beta chain, ectodomain; Also used after pH 4.6 pulses and SEC isolation of the intact portion (assay a3); also called soluble DOv; source: recombinant, expressed and purified alone
- fold increase of KD,app from pH 7.2 to pH 4.7 [9]: > 10 fold

B4: biotinylated stabilized HLA-DO variant ectodomain (alpha P11A) (domain or fragment, human)
MHC II alpha: TKADHMGSYGAAFYQSYGASGQFTHEFDEEQLFSVDLKKSEAVWRLPEFGDFARFDPQGGLAGIAAIKAHLDILVERSNRSRAINVPPRVTVLPKSRVELGQPNILICIVDNIFPPVINITWLRNGQTVTEGVAQTSFYSQPDHLFRKFHYLPFVPSAEDVYDCQVEHWGLDAPLLRHWELQVPIPPPDAME
MHC II beta: TDSPEDFVIQAKADCYFTNGTEKVQFVVRFIFNLEEYVRFDSDVGMFVALTKLGQPDAEQWNSRLDLLERSRQAVDGVCRHNYRLGAPFTVGRKVQPEVTVYPERTPLLHQHNLLHCSVTGFYPGDIKIKWFLNGQEERAGVMSTGPIRNGDWTFQTVVMLEMTPELGHVYTCLVDHSSLLSPVSVEWRAQSEYSWRK
modifications: biotin on the C-terminal avitag (BirA)
notes: HLA-DO alpha chain, human, ectodomain; HLA-DO beta chain, human, ectodomain; Same construct as Dm2, biotinylated and held on streptavidin biosensors in BLI; also called bio-DOv; biotinylated DOv
- Kd [10]: 17 nM
- Kd [11]: 26.9 nM
- Kd [12]: 11.3 nM
- Kd [13]: 233 nM
